# Reference: publication PMC10397247
# Like-named read-outs stand apart in the source and are kept apart here.
# T1: 4H2466-AA
# T1 chain: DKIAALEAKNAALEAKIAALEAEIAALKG
# T2: 4H3438-AA
# T2 chain: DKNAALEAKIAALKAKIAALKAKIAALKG
# T3: 4H2592-AA
# T3 chain: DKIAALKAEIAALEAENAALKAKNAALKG
# T4: 4H347-AA
# T4 chain: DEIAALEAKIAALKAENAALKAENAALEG
# T5: 4H249-AA
# T5 chain: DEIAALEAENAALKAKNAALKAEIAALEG
# T6: 4H2732-AA
# T6 chain: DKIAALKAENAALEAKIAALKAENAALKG
# T7: 4H3015-AA
# T7 chain: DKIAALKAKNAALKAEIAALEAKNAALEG
# T8: 4H2343-AA
# T8 chain: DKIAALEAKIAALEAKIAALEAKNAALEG
# T9: 4H56-AA
# T9 chain: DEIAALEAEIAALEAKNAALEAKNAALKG
# T10: 4H3001-AA
# T10 chain: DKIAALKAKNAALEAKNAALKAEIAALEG
# T11: 4H_APH
# T11 chain: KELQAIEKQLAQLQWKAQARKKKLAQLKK
# T12: 4H3073-AA
# T12 chain: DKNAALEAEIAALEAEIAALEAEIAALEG
# T13: 4H452-AA
# T13 chain: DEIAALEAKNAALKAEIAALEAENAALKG
# T14: 4H2931-AA
# T14 chain: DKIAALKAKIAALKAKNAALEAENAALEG
# T15: 4H_BCR
# T15 chain: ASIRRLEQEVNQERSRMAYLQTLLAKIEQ
# T16: 4H406-AA
# T16 chain: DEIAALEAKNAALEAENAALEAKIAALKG
# T17: 4H2774-AA
# T17 chain: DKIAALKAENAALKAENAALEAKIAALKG
# T18: 4H2698-AA
# T18 chain: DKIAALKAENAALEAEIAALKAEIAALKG
# T19: 4H3120-AA
# T19 chain: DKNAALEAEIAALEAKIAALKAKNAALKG
# T20: 4H485-AA
# T20 chain: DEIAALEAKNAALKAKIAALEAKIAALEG
# T21: 4H909-AA
# T21 chain: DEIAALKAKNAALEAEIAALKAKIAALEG
# T22: 4H3165-AA
# T22 chain: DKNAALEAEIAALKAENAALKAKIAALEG
# T23: 4H94-AA
# T23 chain: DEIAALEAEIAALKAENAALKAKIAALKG
# T24: 4H2725-AA
# T24 chain: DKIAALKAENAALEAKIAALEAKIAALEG
# T25: 4H3590-AA
# T25 chain: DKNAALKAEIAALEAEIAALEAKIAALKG
# T26: 4H850-AA
# T26 chain: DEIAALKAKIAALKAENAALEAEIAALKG
# T27: 4H2649-AA
# T27 chain: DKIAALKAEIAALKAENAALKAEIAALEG
# T28: 4H2330-AA
# T28 chain: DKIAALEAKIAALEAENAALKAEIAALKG
# T29: 4H310-AA
# T29 chain: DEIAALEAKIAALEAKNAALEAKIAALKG
# T30: 4H930-AA
# T30 chain: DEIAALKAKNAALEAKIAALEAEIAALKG
# T31: 4H3753-AA
# T31 chain: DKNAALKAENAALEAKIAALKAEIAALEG
# T32: 4H536-AA
# T32 chain: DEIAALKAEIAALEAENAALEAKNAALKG
# T33: 4H3381-AA
# T33 chain: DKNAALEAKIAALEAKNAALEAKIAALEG
# T34: 4H891-AA
# T34 chain: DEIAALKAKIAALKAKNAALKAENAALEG
# T35: 4H797-AA
# T35 chain: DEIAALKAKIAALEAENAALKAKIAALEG
# T36: 4H710-AA
# T36 chain: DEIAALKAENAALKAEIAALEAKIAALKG
# T37: 4H2865-AA
# T37 chain: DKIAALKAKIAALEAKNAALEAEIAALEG
# T38: 4H570-AA
# T38 chain: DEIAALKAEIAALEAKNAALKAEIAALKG
# T39: 4H745-AA
# T39 chain: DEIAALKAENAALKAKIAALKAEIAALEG
# T40: 4H2473-AA
# T40 chain: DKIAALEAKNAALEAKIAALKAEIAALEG
# T41: 4H629-AA
# T41 chain: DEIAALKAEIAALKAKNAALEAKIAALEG
# T42: 4H458-AA
# T42 chain: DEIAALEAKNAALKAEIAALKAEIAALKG
# T43: 4H2438-AA
# T43 chain: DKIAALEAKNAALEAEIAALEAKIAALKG
# T44: 4H3009-AA
# T44 chain: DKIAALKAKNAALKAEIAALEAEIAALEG
# T45: 4H3697-AA
# T45 chain: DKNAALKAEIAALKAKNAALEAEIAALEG
# T46: 4H3130-AA
# T46 chain: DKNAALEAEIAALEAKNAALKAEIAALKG
# T47: 4H3865-AA
# T47 chain: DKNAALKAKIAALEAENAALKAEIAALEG
# T48: 4H3410-AA
# T48 chain: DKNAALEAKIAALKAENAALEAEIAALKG
# T49: 4H3016-AA
# T49 chain: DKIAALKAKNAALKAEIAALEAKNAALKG
# T50: 4H3395-AA
# T50 chain: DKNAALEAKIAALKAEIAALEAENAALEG
# T51: 4H2389-AA
# T51 chain: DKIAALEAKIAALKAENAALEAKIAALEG
# How the values were obtained:
# Assay in all cases: two-hybrid library CCmax;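 further: natural log of median RNA to DNA barcode read ratio; higher means stronger binding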
# [1] = target: T1, 4H2466-AA; conditions: mean of both orientations
# [2] = target: T2, 4H3438-AA; conditions: mean of both orientations
# [3] = target: T3, 4H2592-AA; conditions: mean of both orientations
# [4] = target: T4, 4H347-AA; conditions: mean of both orientations
# [5] = target: T5, 4H249-AA; conditions: mean of both orientations
# [6] = target: T6, 4H2732-AA; conditions: mean of both orientations
# [7] = target: T7, 4H3015-AA; conditions: mean of both orientations
# [8] = target: GCN2_T
# [9] = target: T8, 4H2343-AA
# [10] = target: T9, 4H56-AA; conditions: mean of both orientations
# [11] = target: T10, 4H3001-AA; conditions: mean of both orientations
# [12] = target: T11, 4H_APH; conditions: mean of both orientations
# [13] = target: 4H_GCN4; conditions: mean of both orientations
# Sequence of 4H_GCN4 (chain, as listed by the source): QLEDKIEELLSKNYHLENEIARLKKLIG
# [14] = target: T12, 4H3073-AA; conditions: mean of both orientations
# [15] = target: T13, 4H452-AA; conditions: mean of both orientations
# [16] = target: T14, 4H2931-AA; conditions: mean of both orientations
# [17] = target: T15, 4H_BCR; conditions: mean of both orientations
# [18] = target: T16, 4H406-AA; conditions: mean of both orientations
# [19] = target: T17, 4H2774-AA; conditions: mean of both orientations
# [20] = target: T18, 4H2698-AA; conditions: mean of both orientations
# [21] = target: T19, 4H3120-AA; conditions: mean of both orientations
# [22] = target: T20, 4H485-AA; conditions: mean of both orientations
# [23] = target: T21, 4H909-AA; conditions: mean of both orientations
# [24] = target: T22, 4H3165-AA; conditions: mean of both orientations
# [25] = target: T23, 4H94-AA; conditions: mean of both orientations
# [26] = target: T24, 4H2725-AA; conditions: mean of both orientations
# [27] = target: T25, 4H3590-AA; conditions: mean of both orientations
# [28] = target: T26, 4H850-AA; conditions: mean of both orientations
# [29] = target: T27, 4H2649-AA; conditions: mean of both orientations
# [30] = target: T28, 4H2330-AA
# [31] = target: T29, 4H310-AA; conditions: mean of both orientations
# [32] = target: T30, 4H930-AA; conditions: mean of both orientations
# [33] = target: T31, 4H3753-AA; conditions: mean of both orientations
# [34] = target: T32, 4H536-AA; conditions: mean of both orientations
# [35] = target: T33, 4H3381-AA; conditions: mean of both orientations
# [36] = target: T34, 4H891-AA; conditions: mean of both orientations
# [37] = target: T35, 4H797-AA; conditions: mean of both orientations
# [38] = target: T36, 4H710-AA; conditions: mean of both orientations
# [39] = target: T37, 4H2865-AA; conditions: mean of both orientations
# [40] = target: T38, 4H570-AA; conditions: mean of both orientations
# [41] = target: T39, 4H745-AA; conditions: mean of both orientations
# [42] = target: T40, 4H2473-AA; conditions: mean of both orientations
# [43] = target: T41, 4H629-AA; conditions: mean of both orientations
# [44] = target: T42, 4H458-AA; conditions: mean of both orientations
# [45] = target: T43, 4H2438-AA; conditions: mean of both orientations
# [46] = target: T44, 4H3009-AA; conditions: mean of both orientations
# [47] = target: T45, 4H3697-AA; conditions: mean of both orientations
# [48] = target: T46, 4H3130-AA; conditions: mean of both orientations
# [49] = target: T47, 4H3865-AA; conditions: mean of both orientations
# [50] = target: T48, 4H3410-AA; conditions: mean of both orientations
# [51] = target: T49, 4H3016-AA; conditions: mean of both orientations
# [52] = target: T50, 4H3395-AA; conditions: mean of both orientations
# [53] = target: T51, 4H2389-AA; conditions: mean of both orientations
binder,measurement,setting,value
DKIAALEAKIAALEAKIAALEAKNAALEG [4H2343-AA],interaction score,[1],-1.39
same,interaction score,[2],0.393
same,interaction score,[3],-1.2
same,interaction score,[4],-1.77
same,interaction score,[5],-1.75
same,interaction score,[6],-1.84
same,interaction score,[7],-1.83
same,interaction score,[8],-2.25
same,interaction score,[9],1.95
same,interaction score,[10],-1.45
same,interaction score,[11],-1.8
same,interaction score,[12],-1.88
same,interaction score,[13],-1.32
same,interaction score,[14],0.404
same,interaction score,[15],-1.86
same,interaction score,[16],-1.61
same,interaction score,[17],-2.04
same,interaction score,[18],-1.85
same,interaction score,[19],-1.54
DKIAALEAKIAALEAENAALKAEIAALKG [4H2330-AA],interaction score,[20],-1.05
same,interaction score,[21],-1.29
same,interaction score,[22],-1.35
same,interaction score,[23],-1.17
same,interaction score,[1],-1.14
same,interaction score,[24],-1.39
same,interaction score,[2],-1.59
same,interaction score,[3],-0.144
same,interaction score,[4],-0.642
same,interaction score,[5],-1.48
same,interaction score,[6],-1.45
same,interaction score,[25],0.579
same,interaction score,[26],-1.57
same,interaction score,[7],-1.54
same,interaction score,[27],-1.06
same,interaction score,[8]; mean of both orientations,-1.77
same,interaction score,[28],1.43
same,interaction score,[9]; mean of both orientations,-1.3
same,interaction score,[29],0.31
same,interaction score,[10],-1.47
same,interaction score,[30],2.14
same,interaction score,[11],-1.21
same,interaction score,[31],-0.633
same,interaction score,[32],-1.22
same,interaction score,[33],-1.31
same,interaction score,[34],-1.33
same,interaction score,[35],-1.67
same,interaction score,[36],-1.54
same,interaction score,[12],-2.24
same,interaction score,[13],-1.88
same,interaction score,[14],-1.5
same,interaction score,[37],-0.788
same,interaction score,[38],-1.49
same,interaction score,[15],-1.85
same,interaction score,[39],-0.443
same,interaction score,[16],-1.63
same,interaction score,[40],0.717
same,interaction score,[41],-1.42
same,interaction score,[42],-0.502
same,interaction score,[43],-1.21
same,interaction score,[44],-1.07
same,interaction score,[45],-0.853
same,interaction score,[17],-2.26
same,interaction score,[18],-0.544
same,interaction score,[46],-1.35
same,interaction score,[47],-1.56
same,interaction score,[48],0.306
same,interaction score,[49],0.945
same,interaction score,[50],0.287
same,interaction score,[51],-1.44
same,interaction score,[52],-1.56
same,interaction score,[53],-0.00244
same,interaction score,[19],-1.55
